The target in this experiment is angiotensin converting enzyme (Homo sapiens, UniProt P12821). Put plainly: ACE inhibition activity measurement (IC50). In kind it is biochemical. The conditions noted are these: FIG. 6; for ACE inhibition: isolated peptides. How it is done: The inventors of the present invention measured the ACE inhibition activities based on the process concentration with respect to the second hydrolysate containing a lower molecular weight among the gelatin extracts of the skins of a skate ray obtained from the above embodiments so as to develop a new hypertension therapy medicine which could be quickly absorbed by a human body and has a good effect, and the measurements were conducted in the method of measuring IC50 concentration which could inhibit 50% of the angiotensin converting enzyme in accordance with the angiotensin converting enzyme inhibition measurement method.
The inventors of the present invention isolated two active peptides by way of FPLC (Fast Protein Liquid Chromatography) with respect to the second hydrolysate so as to isolate the functional peptides having an antihypertensive activity contained in the second hydrolysate of the gelatin extract obtained from the skins of a skate ray. As a result of the analysis on the base sequence of the peptide, it was confirmed that the peptide had the following base sequence. In addition, the ACE inhibition (IC50) was checked in the earlier explained method so as to check the antihypertensive activity with respect to the peptides.

angiotensin converting enzyme, sequence (P12821 30-1306, species assumed): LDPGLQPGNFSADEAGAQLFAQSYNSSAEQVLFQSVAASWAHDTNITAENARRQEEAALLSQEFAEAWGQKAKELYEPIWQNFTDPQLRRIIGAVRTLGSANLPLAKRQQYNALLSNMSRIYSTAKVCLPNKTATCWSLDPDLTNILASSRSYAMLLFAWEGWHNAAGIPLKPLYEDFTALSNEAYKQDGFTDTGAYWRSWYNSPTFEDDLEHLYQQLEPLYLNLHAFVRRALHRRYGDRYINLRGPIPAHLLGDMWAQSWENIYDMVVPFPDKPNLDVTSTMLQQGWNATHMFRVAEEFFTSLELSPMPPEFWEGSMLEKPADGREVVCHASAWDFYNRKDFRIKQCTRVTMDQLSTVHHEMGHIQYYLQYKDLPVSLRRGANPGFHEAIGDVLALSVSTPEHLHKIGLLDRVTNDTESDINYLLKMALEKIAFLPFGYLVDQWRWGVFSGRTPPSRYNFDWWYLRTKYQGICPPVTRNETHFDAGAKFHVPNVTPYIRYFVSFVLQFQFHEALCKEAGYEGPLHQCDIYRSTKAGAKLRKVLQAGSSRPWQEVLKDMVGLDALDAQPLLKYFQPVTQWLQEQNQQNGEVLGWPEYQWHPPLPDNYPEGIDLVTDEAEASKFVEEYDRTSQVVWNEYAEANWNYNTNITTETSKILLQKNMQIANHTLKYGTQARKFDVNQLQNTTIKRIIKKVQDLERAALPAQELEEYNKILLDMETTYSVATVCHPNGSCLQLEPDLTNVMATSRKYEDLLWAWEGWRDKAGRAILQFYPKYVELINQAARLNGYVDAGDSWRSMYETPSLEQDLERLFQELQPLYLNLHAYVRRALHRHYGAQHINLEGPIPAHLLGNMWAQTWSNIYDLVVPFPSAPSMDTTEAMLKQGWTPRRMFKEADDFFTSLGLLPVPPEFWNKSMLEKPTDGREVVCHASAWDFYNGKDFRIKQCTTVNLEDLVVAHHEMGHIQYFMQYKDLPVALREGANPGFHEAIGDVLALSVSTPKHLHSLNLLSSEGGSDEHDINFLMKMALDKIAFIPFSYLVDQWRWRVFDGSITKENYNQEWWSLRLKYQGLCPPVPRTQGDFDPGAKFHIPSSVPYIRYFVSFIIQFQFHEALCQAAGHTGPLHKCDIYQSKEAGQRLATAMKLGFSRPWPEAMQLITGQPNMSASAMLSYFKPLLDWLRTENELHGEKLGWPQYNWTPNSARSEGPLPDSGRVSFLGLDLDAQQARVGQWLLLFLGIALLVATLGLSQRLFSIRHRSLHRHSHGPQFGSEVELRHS

As to “LGPLGHQ [SP2, peptide (720 Da) isolated by FPLC from the second hydrolysate]”, the ACE inhibition result is listed as “have the ACE inhibition”. Regarding “MVGSAPGVL [SPI, peptide (829 Da) isolated by FPLC from the second hydrolysate]”, the “antihypertensive activity (ACE inhibition) compared with the other peptide” value was “higher antihypertensive activity as compared to the SP2” and the ACE inhibition result is reported as “have the ACE inhibition”.

The record behind these values is patent US20140072650A1, “GELATIN EXTRACT MADE FROM SKATE RAY SKIN AND ANTIHYPERTENSIVE COMPOSITION HAVING PEPTIDE ISOLATED FROM EXTRACT AS ACTIVE INGREDIENT” (PUKYONG NATIONAL UNIVERSITY INDUSTRY-UNIVERSITY CO, priority 2012, published 2014).
